Patent publication US20150018409A1, “CHIMERIC POLYPEPTIDES AND THEIR USE” (ADRIACELL S.P.A., priority 2003, published 2015)

Key:
[1] = test system: HCT116 cells (hMLH1 mutated); assay: Clonogenic assay of mismatch repair defective cells; type: cell-based, human; settings: similar assays
Experimental: These cells were plated into multiwell-microtiter-plates at different concentrations and treated with [sequence] as indicated and stained with GIEMSA-blu. The multiwell-microtiter-plates (for an example see FIG. 13A) were scanned using the VersaDOC® (BioRad) imaging system and growth was automatically quantified with the software package Quantify One® for the analysis of the microtiter-plates (microtiter-plates scanning software).

[2] = test system: MRC-5 cells (ATM positive); settings: SCPVUTAT 100 nM or HU 1 mM
Experimental: [sequence] dependent Ser^15 phosphorylation of p53. The ATM positive cell-line MRC5 was treated with [sequence] (100 nM, SC) or with hydroxyurea (1 mM, HU) for the time periods as indicated; as a control non treated cells were used (O).
(§3) P53 phosphorylation on Ser15 in response to [sequence] treatment was assayed in ATM positive or negative cell lines (MRC-5 and AT-5 respectively). For comparison parallel experiments were done with hydroxyurea (HU). […] For this immunoblotting experiments were done with extracts after treatment, by using specific antibodies to a phosphorylated Ser15 in p53 for specific detection.

[3] = test system: AT-5 cells (mutated for ATM); assay: Colony forming assay; type: cell-based
Experimental: (§1) FIG. 8. Induction of Cell Cycle Block and Clonogenic Activity by […] of Cells Mutated for ATM (AT-5) in Comparison to Non Mutated Cells (MRC-5). • A) Distribution of DNA content distribution during the cell cycle detected by FACS analysis of AT-5 cells after 36 hours of […] treatment (25 nM, 100 nM), or with adriamycin (0.02 μg/ml; ADRIAMYCIN), or with SC34 (100 nM), and as control from non treated cells. The histograms represent DNA content relative to the cell-numbers; the panel on the right indicates the percentage of the corresponding distributions of the various cell cycle phases as calculated with the MODFIT™ program-package. • B) Colony forming assay with cell lines mutated for ATM and induced for DNA damage by […].
(§2) The cell cycle response to DSB's induced by […] treatment were analysed in p53 positive or negative cells. […] Incubation for 36 hours of the cell lines mutated for ATM (AT-5) with […] results in a transient retardation of the cell cycle, as was determined by a DNA content FACS analysis. […] A single addition of […] for 60 minutes to the AT-5 cells was sufficient to induce cell cycle stop after 24 hours (FIG. 8A) and finally leads to cell death, obtained from not correctly ligated DNA, and consequently, the clonogenic activity after a single treatment with […] for 60 minutes was below 0.02% for AT-5 cells. […] In addition, the cells were incubated with adriamycin as a control.

[4] = test system: MRC-5 cells (ATM positive control); assay: Colony forming assay; type: cell-based; settings: 60 minutes treatment, 25 nM or 100 nM
Experimental: as §1, §2

[5] = test system: DSBs in human or rodent cell lines (U2OS, HEK-293, MCF-7, HCT116, WI83, IMR90, MEF); assay: TUNEL assay for DSB induction in vivo; type: cell-based
Experimental: […] was assayed with terminal deoxynucleotidyl transferase (TdT) dUTP-FITC, in a TUNEL reaction (In Situ Cell Death Detection Kit, Roche Diagnostic, Mannheim Germany) which marks DSBs in vivo. The assay was done after fixation of the cells in 4% paraformaldehyde in PBS, 0.1% Triton. After the TUNEL reaction the cells are counter-stained with propidium J. The use of derivatives impaired in the nuclease activity like the construct SC34 as a negative control, allows to estimate background activities. […] This aspect makes the system described in the invention by far more efficient as compared to endonucleases induced from transcriptional units or compared to any of the other type of protein transfection like electroporation, or precipitations with calcium phosphate or libid-derivatives i.e. lipofectin.

[6] = test system: neuroblasoma cell lines (IMR32, LAN5, GI-LIN) and primary neuroblastoma cell isolates; settings: upon treatment with SCPVUTAT
Experimental: For the analysis the DNA content was assayed with FACS after staining of the cells with propidium J^−.

[7] = test system: AT-5 cells (mutated for ATM); assay: FACS analysis of DNA content / cell cycle distribution; type: cell-based; settings: incubation for 36 hours (25 nM, 100 nM)
Experimental: as §1
The cell cycle response to DSB's induced by […] treatment were analysed in p53 positive or negative cells. […] Incubation for 36 hours of the cell lines mutated for ATM (AT-5) with […] results in a transient retardation of the cell cycle, as was determined by a DNA content FACS analysis. […] A single addition of […] for 60 minutes to the AT-5 cells was sufficient to induce cell cycle stop after 24 hours (FIG. 8A) and finally leads to cell death, obtained from not correctly ligated DNA, and consequently, the clonogenic activity after a single treatment with […] for 60 minutes was below 0.02% for AT-5 cells. […]

[8] = test system: HCT116 (p53(+/+)) cells; assay: Cell cycle arrest point: nuclear morphology and immunofluorescence of cyclin B1 and Cdc25C; type: cell-based, human
Experimental: Microscopic analysis of the HCT116 (p53(+/+)) cells not treated, or treated with […] (100 nM) for 30 hours, or with taxol (0.2 μg/ml). Immunofluorescence analysis was done with primary antibodies specific for cyclin B1 or specific for Cdc25C and coloured with secondary conjugates of FITC (green, cyclinB1) or TRITC (red, Cdc25C).
Moreover, the initiation of mitosis, i.e. induced with the microtuble blocking agents Nocodazol or Taxol, can be detected by the nuclear activity of the Cdc2 kinase and also by nuclear localisation of Cdc25C. These assays allow to dissect the exact point of cell cycle arrest after […] treatment and this further allows to detect disturbations in this phase of the cell cycle relative to a positive control. Similar experiments are well known in the art also for other phases of the cell cycle. The assay shown in FIG. 7A and the immunofluorescence analysis shown in FIG. 14 show examples for these types of experiments.
HCT116 (p53(+/+)) not treated, or treated for 30 hours with […] (100 nM), or with Taxol (0.2 μg/ml) were fixated with 3% PFA and treated with specific antibodies to cyclin B1 or for Cdc25C. The immunofluorescence was analysed with the microscope (see FIG. 14) with specific primary antibodies to cyclin B1 conjugated to FITC labelled secondary antibodies (green) or with specific primary antibodies to Cdc25C conjugated to TRITC labelled secondary antibodies (red).

[9] = test system: AT-5 cells (ATM negative); settings: SCPVUTAT 100 nM or HU 1 mM
Experimental: AT-5 cells, negative for ATM were treated with [sequence]
as §3

B1: SCPVUTAT: single chain PvuII endonuclease (aa 1-157, GSGG linker, aa 2-157) fused to HIV Tat peptide and six histidine tag; SEQ ID NO:2 (protein, listed as Proteus vulgaris)
chain: MSHPDLNKLLELWPHIQEYQDLALKHGINDIFQDNGGKLLQVLLITGLTVLPGREGNDAVDNAGQEYELKSINIDLTKGFSTHHHMNPVIIAKYRQVPWIFAIYRGIAIEAIYRLEPKDLEFYYDKWERKWYSDGHKDINNPKIPVKYVMEHGTKIYGSGGSHPDLNKLLELWPHIQEYQDLALKHGINDIFQDNGGKLLQVLLITGLTVLPGREGNDAVDNAGQEYELKSINIDLTKGFSTHHHMNPVIIAKYRQVPWIFAIYRGIAIEAIYRLEPKDLEFYYDKWERKWYSDGHKDINNPKIPVKYVMEHGTKIYGSYGRKKRRQRRRGGSHHHHHH
Q: For B1, which “sensitivity in clonogenic assay” value [1] is on record?
A: do not show any increase in sensibility

Q: What about the p53-Ser15 phosphorylation [2] of the same molecule?
A: specific phosphorylation of p53-Ser^15 is obtained

Q: And the “colonies relative to non treated cells (100%)” value ([3]; 100 nM, 60 minutes, grown 7-10 days (FIG. 8B black bar))?
A: ~0%

Q: And the clonogenic activity ([3]; single treatment for 60 minutes)?
A: below 0.02%

Q: And the “sensitivity in colony forming assay compared to AT-5” value [4]?
A: less sensitive

Q: What about the TUNEL positive cells ([5]; 10 minutes after treatment, all cell types tested) of the same molecule?
A: 90-100%

Q: What about the TUNEL activity ([5]; few minutes of treatment, concentration in culture supernatant as low as 10 nM) of the same molecule?
A: significant TUNEL activity in most of the cells

Q: What about the induction of apoptosis [6] of the same molecule?
A: significant amount of apoptosis was induced

Q: What about the “change of cell cycle distribution (DNA content)” value [7] of the same molecule?
A: strong increase in 4N G2 DNA content

Q: And the “cell cycle stop from localisation of Cdc25C and cyclin B” value ([8]; 30 hours, SCPVUTAT 100 nM or Taxol 0.2 μg/ml)?
A: G2 phase stop

Q: And the cell cycle block ([8]; upon treatment with SCPVUTAT (100 nM))?
A: reversible block in the phase of the cell cycle that corresponds to late S/G2

Q: And the p53-Ser15 phosphorylation [9]?
A: specific phosphorylation of p53-Ser^15 is obtained
